Laboratory results reported in publication PMC7710607.

Biological target: ACSL1 (UniProt P41216)
Assay: GST-TBK1 binding to bead-bound flag-ACSL1
Conditions: reference: ΔC (1-657) wild type; sites S172

Q: “mouse TBK1 (mTBK1, GST-TBK1) C-terminal truncated, 1-657 (from UniProt Q9WUN2) ΔC (1-657) S172A” was tested. Which “binding against the reference” value did it give?
A: stronger
